Assay results published in article PMC10397247.

Assays:
4H3417-AA = target: T1, 4H3417-AA; assay: two-hybrid library CCmax; settings: mean of both orientations;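 note: natural log of median RNA to DNA barcode read ratio; higher means stronger binding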
T1 chain: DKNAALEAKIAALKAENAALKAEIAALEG

4H3121-AA = target: T2, 4H3121-AA; assay: two-hybrid library CCmax; settings: mean of both orientations;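 note: natural log of median RNA to DNA barcode read ratio; higher means stronger binding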
T2 chain: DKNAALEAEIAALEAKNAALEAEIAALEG

4H3628-AA = target: T3, 4H3628-AA; assay: two-hybrid library CCmax; settings: mean of both orientations;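 note: natural log of median RNA to DNA barcode read ratio; higher means stronger binding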
T3 chain: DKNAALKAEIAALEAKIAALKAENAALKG

4H3666-AA = target: T4, 4H3666-AA; assay: two-hybrid library CCmax; settings: mean of both orientations;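 note: natural log of median RNA to DNA barcode read ratio; higher means stronger binding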
T4 chain: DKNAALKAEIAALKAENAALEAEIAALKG

4H3446-AA = target: T5, 4H3446-AA; assay: two-hybrid library CCmax; settings: mean of both orientations;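 note: natural log of median RNA to DNA barcode read ratio; higher means stronger binding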
T5 chain: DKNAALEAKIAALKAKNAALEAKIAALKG

4H428-AA = target: T6, 4H428-AA; assay: two-hybrid library CCmax; settings: mean of both orientations;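 note: natural log of median RNA to DNA barcode read ratio; higher means stronger binding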
T6 chain: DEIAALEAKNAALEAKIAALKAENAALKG

4H656-AA = target: T7, 4H656-AA; assay: two-hybrid library CCmax; settings: mean of both orientations
T7 chain: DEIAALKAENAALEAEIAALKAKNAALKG

4H3939-AA = target: T8, 4H3939-AA; assay: two-hybrid library CCmax; settings: mean of both orientations
T8 chain: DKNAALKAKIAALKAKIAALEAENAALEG

4H3920-AA = target: T9, 4H3920-AA; assay: two-hybrid library CCmax; settings: mean of both orientations
T9 chain: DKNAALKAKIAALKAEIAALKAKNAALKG

4H3709-AA = target: T10, 4H3709-AA; assay: two-hybrid library CCmax; settings: mean of both orientations
T10 chain: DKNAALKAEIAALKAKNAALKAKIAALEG

4H3102-AA = target: T11, 4H3102-AA; assay: two-hybrid library CCmax; settings: mean of both orientations
T11 chain: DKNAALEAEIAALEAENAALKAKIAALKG

4H971-AA = target: T12, 4H971-AA; assay: two-hybrid library CCmax; settings: mean of both orientations
T12 chain: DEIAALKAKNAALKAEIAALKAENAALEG

4H391-AA = target: T13, 4H391-AA; assay: two-hybrid library CCmax; settings: mean of both orientations
T13 chain: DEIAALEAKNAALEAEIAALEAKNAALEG

4H478-AA = target: T14, 4H478-AA; assay: two-hybrid library CCmax; settings: mean of both orientations
T14 chain: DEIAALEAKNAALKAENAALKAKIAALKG

4H675-AA = target: T15, 4H675-AA; assay: two-hybrid library CCmax; settings: mean of both orientations
T15 chain: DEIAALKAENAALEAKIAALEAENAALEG

4H3591-AA = target: T16, 4H3591-AA; assay: two-hybrid library CCmax; settings: mean of both orientations
T16 chain: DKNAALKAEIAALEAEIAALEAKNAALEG

4H3066-AA = target: T17, 4H3066-AA; assay: two-hybrid library CCmax
T17 chain: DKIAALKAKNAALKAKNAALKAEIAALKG

4H497-AA = target: T18, 4H497-AA; assay: two-hybrid library CCmax; settings: mean of both orientations
T18 chain: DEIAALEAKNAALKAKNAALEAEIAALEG

O11-AA = target: T19, O11-AA; assay: two-hybrid library CCmax; settings: mean of both orientations
T19 chain: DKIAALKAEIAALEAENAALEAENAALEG

O14-AA = target: T20, O14-AA; assay: two-hybrid library CCmax; settings: mean of both orientations
T20 chain: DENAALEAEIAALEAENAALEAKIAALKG

4H451-AA = target: T21, 4H451-AA; assay: two-hybrid library CCmax; settings: mean of both orientations
T21 chain: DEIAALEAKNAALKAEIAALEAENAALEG

4H_BCR = target: T22, 4H_BCR; assay: two-hybrid library CCmax; settings: mean of both orientations
T22 chain: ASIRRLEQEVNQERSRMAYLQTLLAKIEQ

O13-AA = target: T23, O13-AA; assay: two-hybrid library CCmax; settings: mean of both orientations
T23 chain: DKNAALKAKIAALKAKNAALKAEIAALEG

4H_APH = target: T24, 4H_APH; assay: two-hybrid library CCmax; settings: mean of both orientations
T24 chain: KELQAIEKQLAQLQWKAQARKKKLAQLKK

4H43-AA = target: T25, 4H43-AA; assay: two-hybrid library CCmax
T25 chain: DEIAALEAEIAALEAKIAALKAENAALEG

GCN2_T = assay: two-hybrid library CCmax
4H510-AA = target: T26, 4H510-AA; assay: two-hybrid library CCmax; settings: mean of both orientations
T26 chain: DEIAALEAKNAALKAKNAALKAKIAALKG

4H619-bH = target: T27, 4H619-bH; assay: two-hybrid library CCNG1
T27 chain: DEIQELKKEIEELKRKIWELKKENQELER

4H570-bH = target: T28, 4H570-bH; assay: two-hybrid library CCNG1
T28 chain: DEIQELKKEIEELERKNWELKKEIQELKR

4H850-bH = target: T29, 4H850-bH; assay: two-hybrid library CCNG1
T29 chain: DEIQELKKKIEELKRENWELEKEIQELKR

4H906-bH = target: T30, 4H906-bH; assay: two-hybrid library CCNG1
T30 chain: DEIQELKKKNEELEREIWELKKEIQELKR

4H3974-bH = target: T31, 4H3974-bH; assay: two-hybrid library CCNG1
T31 chain: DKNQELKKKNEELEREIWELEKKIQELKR

4H584-bH = target: T32, 4H584-bH; assay: two-hybrid library CCNG1
T32 chain: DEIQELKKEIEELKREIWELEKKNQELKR

4H967-AA = target: T33, 4H967-AA; assay: two-hybrid library CCmax
T33 chain: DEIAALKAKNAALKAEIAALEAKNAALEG

4H754-bH = target: T34, 4H754-bH; assay: two-hybrid library CCNG1
T34 chain: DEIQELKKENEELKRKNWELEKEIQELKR

4H780-bH = target: T35, 4H780-bH; assay: two-hybrid library CCNG1
T35 chain: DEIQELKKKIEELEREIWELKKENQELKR

4H918-bH = target: T36, 4H918-bH; assay: two-hybrid library CCNG1
T36 chain: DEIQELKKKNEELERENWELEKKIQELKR

4H683-bH = target: T37, 4H683-bH; assay: two-hybrid library CCNG1
T37 chain: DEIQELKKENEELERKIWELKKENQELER

4H855-bH = target: T38, 4H855-bH; assay: two-hybrid library CCNG1
T38 chain: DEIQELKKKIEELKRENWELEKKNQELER

4H968-bH = target: T39, 4H968-bH; assay: two-hybrid library CCNG1
T39 chain: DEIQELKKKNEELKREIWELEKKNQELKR

4H949-bH = target: T40, 4H949-bH; assay: two-hybrid library CCNG1
T40 chain: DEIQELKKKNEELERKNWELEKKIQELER

4H953-bH = target: T41, 4H953-bH; assay: two-hybrid library CCNG1
T41 chain: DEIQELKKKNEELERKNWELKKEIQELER

4H797-bH = target: T42, 4H797-bH; assay: two-hybrid library CCNG1
T42 chain: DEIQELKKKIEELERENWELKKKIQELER

4H72-bN = target: T43, 4H72-bN; assay: two-hybrid library CCNG1
T43 chain: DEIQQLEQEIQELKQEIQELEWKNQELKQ

4H492-bA = target: T44, 4H492-bA; assay: two-hybrid library CCNG1
T44 chain: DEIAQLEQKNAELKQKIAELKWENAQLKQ

4H477-bA = target: T45, 4H477-bA; assay: two-hybrid library CCNG1
T45 chain: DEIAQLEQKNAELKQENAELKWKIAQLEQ

4H741-bA = target: T46, 4H741-bA; assay: two-hybrid library CCNG1
T46 chain: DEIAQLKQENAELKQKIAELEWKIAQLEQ

B1: 4H3066-AA (peptide)
chain: DKIAALKAKNAALKAKNAALKAEIAALKG
- interaction score (4H3417-AA): -2.18
- interaction score (4H3121-AA): -0.941
- interaction score (4H3628-AA): -1.85
- interaction score (4H3666-AA): 0.0105
- interaction score (4H3446-AA): -1.7
- interaction score (4H428-AA): -1.26
- interaction score (4H656-AA): 0.231
- interaction score (4H3939-AA): -2.16
- interaction score (4H3920-AA): -1.87
- interaction score (4H3709-AA): -1.94
- interaction score (4H3102-AA): 0.0998
- interaction score (4H971-AA): -1.81
- interaction score (4H391-AA): -1.09
- interaction score (4H478-AA): 1.25
- interaction score (4H675-AA): -1.19
- interaction score (4H3591-AA): -1.59
- interaction score (4H3066-AA): -0.506
- interaction score (4H497-AA): -0.971

B2: 4H43-AA (peptide)
chain: DEIAALEAEIAALEAKIAALKAENAALEG
- interaction score (O11-AA): -0.943
- interaction score (O14-AA): -0.845
- interaction score (4H451-AA): -1.31
- interaction score (4H_BCR): -1.44
- interaction score (O13-AA): 0.246
- interaction score (4H_APH): -0.887
- interaction score (4H43-AA): 1.54
- interaction score (GCN2_T): -1.41
- interaction score (4H510-AA): -0.823

B3: 4H3974-bH (peptide)
chain: DKNQELKKKNEELEREIWELEKKIQELKR
- interaction score (4H619-bH): -0.167
- interaction score (4H570-bH): -0.965
- interaction score (4H850-bH): -0.0332
- interaction score (4H906-bH): -0.332
- interaction score (4H3974-bH): -0.338
- interaction score (4H584-bH): -0.203

B4: 4H967-AA (peptide)
chain: DEIAALKAKNAALKAEIAALEAKNAALEG
- interaction score (4H967-AA): -0.481

B5: 4H683-bH (peptide)
chain: DEIQELKKENEELERKIWELKKENQELER
- interaction score (4H754-bH): -0.187
- interaction score (4H780-bH): -0.661
- interaction score (4H918-bH): -1.01
- interaction score (4H683-bH): 0.562
- interaction score (4H855-bH): -0.174
- interaction score (4H968-bH): 1.12
- interaction score (4H949-bH): -0.385
- interaction score (4H953-bH): -1.23
- interaction score (4H797-bH): -0.161

B6: 4H477-bA (peptide)
chain: DEIAQLEQKNAELKQENAELKWKIAQLEQ
- interaction score (4H72-bN): -3.66
- interaction score (4H492-bA): -0.749
- interaction score (4H477-bA): -0.249
- interaction score (4H741-bA): -1.37
